The experiment deals with barnase (UniProt P00648). Briefly: cell-based or functional assay.

Drawing on patent US6521458, this text covers percent LUC positive shoots from barstar5 explants transformed with pBH700 (against 15% from wild type explants without barstar) for one substance.

Chain of UniProt P00648 (P00648 48-157 limits assumed): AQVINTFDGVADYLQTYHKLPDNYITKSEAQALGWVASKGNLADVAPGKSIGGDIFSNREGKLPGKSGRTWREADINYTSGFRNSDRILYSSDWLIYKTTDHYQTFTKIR

barstar (from UniProt P11540 2-90) yielded a percent LUC positive shoots from barstar5 explants transformed with pBH700 (against 15% from wild type explants without barstar) of 46%.
